Measurements from the nanobody polyreactivity screen of Harvey et al. (2022).

Assay: yeast display, Sf9 membrane polyspecificity reagent, FACS + sequencing; frameworks hold sequencing errors
How it was run: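 Using colony PCR, genes from sorted yeast display clones were amplified, then sequenced on MiSeq at 2 × 250 and filtered by CDR length. The clones had been stained with 10% biotinylated, detergent-solubilized Sf9 membrane reagent for 1 hour at 4 °C and sorted by FACS into low and high (top ~1%) gates on anti-HA and streptavidin fluorescence. Polyreactivity labels come from the gate of origin.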

Sequence	polyreactivity (PSR sort gate)
QVQLVESGGGLVQAGGSLRLSWAASGLIFVYNDMGWYRQAPGKEMELVAAIRWSSGRTYYADSVKGRFTISRDNAKNTVYLQMNSLKPEDTAVYYCAAKGVGPERGGYDYWGQGTQVTVSS	high polyreactivity
QVQLVESGGGLVQAGGSVRLSCAASGRIFGWYAMGCYRPAPGKERELVAAIPWSGDSTYYADSVKGRFTISRDNAKNTVYLQMNSLKPEDTAVYYCNKVRGYPRVAGYYSWGQGTQVTVSS	low polyreactivity
QVQLVESGGGLVQAGGSLRLSCAASGRTFLVNAMGWYRQAPGKEREFVAAITSRSSGSTYYADSVTGRFTISRDKAKNTVYFQLNSQKPEDTAVYYCAARGHLRYESDYWGQGTQVTVSS	high polyreactivity
QVQLVESGGGLVQAGGSLRLSCAASGRTFQRNAMGWYRQAPGKERELVAAITTGSRTYYADSVKGRFTISRDNAKNTVYLQMNSLKPEDTAFYYCAAVATRRDYGYWGQGTQVTVLS	high polyreactivity
QVQLVESGGCLVQAGGSLRLSCADSGIIYYYYAMGWYRQAPGKERELVAAISTSGGRTYYADSVKGRFTISRDNAKNTVYLQMNSLKPEDTAVYYCAADYLKGEEDYWGQGTQVSVSS	low polyreactivity
QVQLVESGGGLVQAGGSLRLSCAASGRIFSKYTMGWYIQAPGKEMELVAAISGSGTSTYYADSVKGRFTISRDNAKNTVYLQMNSLKPEDTAVYYCNAVKSWGHPGRYYWGQGTQVTVSS	high polyreactivity
QVQLVESGGGLVQAGGSLRLICAASGRIFGLNAMGWYRQAPGKEREFVAAITWRGGRTYYADSVKGRFTISRDNAKNTVYLQMNSLKPEDTAVYYCAADGGSTLDYYWGQGTQVTVSS	low polyreactivity
QVQLVESGGGLVQAGGSLRLSCAACGRILWTYAMGLYRQAPGKERELVADISRTGSTNYADSVKGRFTISRDNAKNTVYLQMNSLKPEDTAVYYCAADRWAHTHRLGYWGQGTQVTVSS	low polyreactivity
QVQLVESGGGLVQAGGSLRLSCAASGITFRFYAMGWYRQAPGKERELVAVISRGGGTTYYADSVKGRFTISRDNAKNTVYLQMNSLKPADTSVYYCAADYYYVQSELGYDYWGQGTQVTVSS	high polyreactivity
QVQLVESGGGLVQAGGCLRLSCDASGITFDYYAMGWYRQAPVKESELVAAITNDGRTYNADSVKGRFTISLDNAKNTVYLQMNSLKPEDTADYYCARLTYYVNGRYDYWGQGTQVTVSS	low polyreactivity
QVQLVESGGGLVQAGGSLRLSCAASGSIFDIYAMGWYRQAPGKERELVAAISWNGGDTTYADSVKGRFTISRDNAKNTVYLQMNSLKPEDTAVYYCAADLGYWVADYYWGQGTQVTVSS	high polyreactivity
QVQLVESGGGLVQAGGSLRLSCAASGFILGSNVMGWYRQAPGKERELVAAISYSGGSTYYADSVKGRFTISRDNAKNTVYLQMNSLKPEDTAVYYCARRLTREYDYWGQGSQVTVSS	low polyreactivity
QVQLVESGGGLVQAGGSLRLSCAASGRIFPAYVMGWYRQAPGKERELVATIDNGGGTYYADSVKGRFTISRDNAKNTVYLQMNSLKPEDPAVYYCARDRHVRWGLKMDYWGQGTQVTVSS	low polyreactivity
QVQLVESGGGLVQAGGSLRLSCAASGRIFSAYAMGWYRQAPGKERELVAVISRRGGRTYYADSVKGRFTISRDNAKNTVYLQMNSLKPEDTAVYYCAALGRRTRLYYWGQGTQVTVSS	high polyreactivity
QVQLVESGGGLVQAGGSLRLSCAASGRTFSKYTMGWYRQEPGKESELVAVISRSGTRTYYADSVKGRFTISRDNANNTVYLQMNSMKPEDTAVYYCAAKDERRSFGMGYWGQGTQVTVTS	high polyreactivity
QVQLVESGGGLVQAGGSLRLSCAASGSTFYPNAMGWYRQAPGKERELVAAITDSVGTTNYADSVKGRFTISRDNAKNTVYLQMNSLKPEDTAVYYCAKVKSYWNGYRYYYWGQGTQVTVSS	low polyreactivity
QVQLQESGGGLVQAGGSLRLSCAASGTISPLPAMGWYRQAPGKEPEFVAGIDTGAITNYADSVKGRFTISRDNAKNTVYLQMNSLKPEDTAVYYCAVFPAAYDYYERYYTYWGQGTQVTVIS	low polyreactivity
QVQLVESGGGLVQAGGSLRLSCAASGSTFREYAMGWYIQAPGKERELVAAITSRGGSTYYADSVKGRFTISRDNAKNTVYLQMNSLKPEDTAVYYCAADHGTKAEYYYWGQRTQVTVSS	high polyreactivity
QVQLVESGGGLVQAGGSLRLSCAASGSIFTGNAMGWYRQAPGKERELVAAISSTGTTNYADSVKGRFTISRDNAKNTVYLQMNSLKPEDTAVYYCARRWYSTWWYGYWGQGTQVTVSS	high polyreactivity
QVQLVESGGGLVHAGGSLRLSCAASGSTYIFYAMGWYRQAPGKERELVPAITGGGSTYYADSVKGRFTISRDNAKNTVYLQMNSLKPEDTAVFYCARAEPYYSKSFSLGGYGYWGQGTKVTVSS	low polyreactivity
QVQLVESGGGLVQAGGSLRLSCAASGRTFHRYAMGWYRPAPGKERELVAAISRGGITYYADSVKGRFTISRDNAKNTVYLQMNSLKPEDTAVYFCAALYRYYHESSPFDYWGQGTQVTVSS	high polyreactivity
QVQLVESGGGLVQAGGSLRLSCAASGSTFLGYDMGWYRHAPGKERELVATISKSGGSTHYADSVKGRFTISRDNAKNTVYLQMNSLKPEDTAVYYCAADYYQRYYKKSGEYDYWGQGTQVTVSS	low polyreactivity

Sequence	polyreactivity (PSR sort gate)
QVQLVESGGGLVQAGGRLRLSCAATGRTFLPNAMGWYRQAPGKERELVASINGDGTTNYADSVKGRFTISRDNAKNTVYLQMNSLKPEDTAVYYCAADGYGGYYRGTYYTVYYWGQGTQVTLSS	low polyreactivity
QVQLVESGGGLVQAGGSLRLSCAASGRTFYGNAMGWYRQAPGKERELVAAITTGGGNTYYADSVKGRFTISRDNAKNTVYLQMNSLKPEDTAVYYCAKCYRAYYWGFNYWGQGTQVTVSS	high polyreactivity
QVQLVESGGGLVQAGGSLRLSCPASGLIFVDNAMGWYRQAPGKERELVAAIDSGGSTNYADSVKGRFTISRDNAKNTVYLQMNRLQPEDTAVYYCAADGIYAPWYYQESVEYYFWGQGTQVTVSS	low polyreactivity
QVQLGESGGGLVQAGGSLRLSCAASGLTFDPNAMGWYRQAPGKERELVATITQTDGSTYYADSVKGRFTISRDNAKNTVYLQMNSLKPEDTAVYYCAVDVDEPRYRRPFHHDYWGQGTQVTVSS	low polyreactivity
QVQLVESGGGLVQAGGSLRLSCAASGLIYYRYAMGWYRQAPGKERELVAAITTNGARTYYADSVKGRFTISRDNAKNTVYLQMNSLKPEDTAVYYCAAYGAGKFWAEHNYWGQGTQVTVSS	high polyreactivity
QVQLVESGGGLVQAGGSLRLSCAASGYTFTIYAMGWYRQAPGKERELVASISIDGSTYYADSVKGRFTISRDNAKNTVYLQMNSLKPEDTAVYYCAADYYYYTPGFDYWGQGTQVTVSS	low polyreactivity
QVQLVESGGGLVQAGGSLRLICAASGFTFEYYAMGWYRQAPGKERELVAAISGSGVSTYYADSVKGRFTISRDNAKNTVYLQMNSLNPEDTAVYYCAALGDKYGSNRLDHYWYIWYDSWGQGTQVTVSS	low polyreactivity
QVQLVESGGGLVQAGGSLRLSCAASGSIFSRNAMGWYRQAPGKERELVAAITWSGGSTYYADSVKGRFTISRDNAKNTVYLQMNSLKPEDTAVYYCNAKRSSRIKQLEYDYWGQGTQVTVSS	high polyreactivity
QVQLVESGGGLVQAGGSLRLSCAASGSIFFPYVMGWYRQAPGKERELVAAIRRGGGSTYYADSVKGRFTISRDNAKNTVYLQMNSLKPEDTAVYYCAAKGWYVQHFKRGLYNYWGQGTQVTVSS	high polyreactivity
QVQLVESGAGLVQAGGSHRLSCAASGRNFYWNARGWYRQAPGKEREFVAAISWSGGSTYADSVKGRFTISRDNAKNTVYLQMNSLKPEDTAVYYCAIRVSRSFRAYDYWGQGTQVTVSS	high polyreactivity
QVQLVESGRGLVQAGGSLRLSCAASGSTFWNNGMGWYRQAPGKERELVAAINWSGDSTYYADSVKGRFTISRDNAKNTVYLQMNSLKPEDTAVYYCAAGYYTYSRRSSFFVAYGYWGQGTQVTVSS	low polyreactivity
QVQLQVSGGDLVQAGGSLRMSCAASGTIYGLTSMGWNRQAPGKEREFVAAITDGGNTNYADSVKGRFTISRDNAKNTVYLQMISLKPEDTAVFYCAVLFSDDAYYAYWGQGTQVNVSS	low polyreactivity
QVQHVESGGGLVQAGGSLRLSCAASGGTFYTYAMGWYRQAPGKERELVAAITSRGSSTYYADSVKGRFTISRDNANNTVYLQMNSLKPEDTAVYYCARRSQRGMYSMYYWGQGTQVTVSS	low polyreactivity
QVQLVESGGGLVQAGGSLRLSCAASGSIFNAYDMGWYRQAPGKERELVAGISSSDSTYYADSVKGRFTISRDNAKNTVYLQMNSLKPEDTAVYYCAADPVFAAAYIHLYGIYDSWGQGTQVTVSS	low polyreactivity
QVQLVESGIGLVQAGGSLSLSCAASGFNLDTYGMGWYRQAPGKERELVAAISQSDVSTYYADSVKGRFTISRDNAKNTVYLQMNSLKPEDTAVYYCAADRGGLRWFWQVLYEYWGQGTQVTVSS	low polyreactivity
QVQLEESGGGLVQAGGSLRLSCAASGSTFVYYARGWYRQAPGKERELVAAITTRGGSTYYADSVKGRFTISRDNAKNTVYLQMNSLKPEDTAVYYCATKWPVYPTGYDYWGQVTQVTVSS	low polyreactivity
QVQHVESVGGLVQAGGSLRLSCASSASIFRPNAMGWYRQAPGKDRELVAAITWSGDSTYYADSVKGRFTISRDNAKNTVYLQMNSLKPEDTAVYYCAADFTYQGSSPNYYWGQGTQVTVSS	low polyreactivity
QVQLVESGGGLVQAGGSLRLSCAASGFISRYAMGLYRQAPGKERELVAAINRSGGRTYYADSVKGRFTISRDNAKNTVYLQMNSLKPEDTAVYYCAAERSSSYTYDFWGQGTQVTVSS	high polyreactivity
QVQLVESGGGLVQAGGSLRLSCAASGRSFGLYAMGWYRQAPGKERELVAAISYSGGRTYYADSVKRRFTLSRDNAKKTVYLQRNILKPEDTGVYYCNKAWFPYYYYRFDYWGQGTQVTVSS	high polyreactivity
QVQLVESGGGLVQAGGSLRLSWAASGSIFGNAMGWYRQAPGKEREFVAAISSSGSSTYYADSVKGRFTISRDNAKNTVYLQMNSLKPEDTAVYYCAKRRRSAAPKYDYWGQGTHVTVSS	high polyreactivity
QVQLVESGGGLVQARGSLRLSCAASGRTFVVYDMGWYRPAPGKERALVAAITWSGGSTYYADSVKGRFTSSRDTAKNTVYLQMHSLKPEDTAVYYCAAGYYYFWTYAYWGQGTQVTVSS	low polyreactivity
